In assay [1] the target is T1, Human OATP1B1 (organic anion transporting polypeptide 1B1) (human, UniProt Q9Y6L6, N-glycosylation sites N134, N516).
T1 construct: wild-type human OATP1B1, gene codon-optimised for human cells (GenScript), in pcDNA5 with a cleavable C-terminal YFP-1D4 tag; The tag was removed with 3C protease after nanodisc reconstitution and before Fab18 was added for cryo-EM; also called SLCO1B1; not shown: YFP, C-terminal, cleaved; 1D4, C-terminal, cleaved
The assay can be described thus: cryo-EM structure; OATP1B1 in lipid nanodiscs (MSP1D1, brain polar lipids with cholesterol), premixed with 1:1.75 molar excess Fab18, SEC in HBS (25 mM HEPES pH 7.4, 150 mM NaCl), with 0.065 mM E1S. The note with it: both partners purified.

Assay [2] addresses T2, Human OATP1B3 (organic anion transporting polypeptide 1B3) (human, UniProt Q9NPD5, N-glycosylation sites N134, N516).
T2 construct: wild-type human OATP1B3, gene codon-optimised for human cells (GenScript), in pcDNA5 with a cleavable C-terminal YFP-1D4 tag; also called SLCO1B3; not shown: YFP, C-terminal, cleaved; 1D4, C-terminal, cleaved
The assay can be described thus: cryo-EM structure; OATP1B3 in lipid nanodiscs (MSP1D1, brain polar lipids with cholesterol), premixed with Fab19 at a molar ratio of 1:1, SEC in HBS (25 mM HEPES pH 7.4, 150 mM NaCl), with 0.05 mM atazanavir. As to conditions: both partners purified.

T1 sequence (Q9Y6L6 whole entry): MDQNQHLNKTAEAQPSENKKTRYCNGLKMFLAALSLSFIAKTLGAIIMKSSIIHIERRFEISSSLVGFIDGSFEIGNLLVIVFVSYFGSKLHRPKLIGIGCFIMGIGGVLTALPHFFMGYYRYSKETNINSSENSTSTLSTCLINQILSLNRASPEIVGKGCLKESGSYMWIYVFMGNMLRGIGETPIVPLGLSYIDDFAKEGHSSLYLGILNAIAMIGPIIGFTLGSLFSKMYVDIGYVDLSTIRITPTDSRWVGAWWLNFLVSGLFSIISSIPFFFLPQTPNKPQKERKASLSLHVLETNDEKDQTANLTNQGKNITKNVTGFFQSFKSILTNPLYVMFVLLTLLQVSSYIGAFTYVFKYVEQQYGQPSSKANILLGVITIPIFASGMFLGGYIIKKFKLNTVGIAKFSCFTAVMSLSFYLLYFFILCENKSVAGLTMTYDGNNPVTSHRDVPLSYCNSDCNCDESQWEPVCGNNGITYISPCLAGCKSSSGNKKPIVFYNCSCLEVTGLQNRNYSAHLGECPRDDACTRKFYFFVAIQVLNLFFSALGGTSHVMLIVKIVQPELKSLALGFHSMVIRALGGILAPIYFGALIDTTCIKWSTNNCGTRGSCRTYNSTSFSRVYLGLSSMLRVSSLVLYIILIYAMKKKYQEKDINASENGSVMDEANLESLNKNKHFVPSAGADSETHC
T2 sequence (Q9NPD5 whole entry): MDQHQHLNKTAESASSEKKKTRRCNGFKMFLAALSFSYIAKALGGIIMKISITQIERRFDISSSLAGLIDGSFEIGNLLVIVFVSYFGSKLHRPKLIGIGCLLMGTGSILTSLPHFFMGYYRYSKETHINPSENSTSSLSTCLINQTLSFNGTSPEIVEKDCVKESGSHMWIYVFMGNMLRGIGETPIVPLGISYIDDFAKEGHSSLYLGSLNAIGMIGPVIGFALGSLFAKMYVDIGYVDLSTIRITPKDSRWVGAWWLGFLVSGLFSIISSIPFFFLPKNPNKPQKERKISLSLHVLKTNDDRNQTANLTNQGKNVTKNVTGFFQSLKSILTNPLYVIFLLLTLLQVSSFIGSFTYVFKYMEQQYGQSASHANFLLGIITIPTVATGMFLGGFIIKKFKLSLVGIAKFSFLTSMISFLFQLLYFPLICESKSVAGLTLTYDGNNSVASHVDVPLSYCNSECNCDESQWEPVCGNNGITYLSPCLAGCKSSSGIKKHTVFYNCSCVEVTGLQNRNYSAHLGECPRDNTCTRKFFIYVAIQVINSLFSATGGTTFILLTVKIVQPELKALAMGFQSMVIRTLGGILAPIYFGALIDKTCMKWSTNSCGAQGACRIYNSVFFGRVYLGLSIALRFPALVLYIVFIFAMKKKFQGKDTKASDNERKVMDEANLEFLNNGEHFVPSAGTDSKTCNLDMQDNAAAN

B1: Fab18 (Fab, V domains shown)
VH: EVQLVESGGGLVQPGGSLRLSCAASGFNFSSSSIHWVRQAPGKGLEWVASISSSSGSTSYADSVKGRFTISADTSKNTAYLQMNSLRAEDTAVYYCARYGWGGPWYYWLRDSRSGIDYWGQGTLVTVSS
VL: DIQMTQSPSSLSASVGDRVTITCRASQSVSSAVAWYQQKPGKAPKLLIYSASSLYSGVPSRFSGSRSGTDFTLTISSLQPEDFATYYCQQSSSSLITFGQGTKVEIK
notes: heavy chain (HC) of Fab18 in PDB 8PHW; selected by phage display from synthetic Fab library E against OATP1B3; light chain (LC) of Fab18 in PDB 8PHW; also called synthetic Fab fragment Fab18; source: E. coli C43 (Pro+), pRH2.2, purified (Protein L, Resource S)
With B1, the binding result in assay [1] is “binds”.

B2: Fab19 (Fab, V domains shown)
VH: EVQLVESGGGLVQPGGSLRLSCAASGFNFSSSSIHWVRQAPGKGLEWVASISSSSGSTSYADSVKGRFTISADTSKNTAYLQMNSLRAEDTAVYYCARYYIKRWWLMSWEDYSMGLDYWGQGTLVTVSS
VL: DIQMTQSPSSLSASVGDRVTITCRASQSVSSAVAWYQQKPGKAPKLLIYSASSLYSGVPSRFSGSRSGTDFTLTISSLQPEDFATYYCQQSSSSLITFGQGTKVEIK
notes: heavy chain (HC) of Fab19 in PDB 8PG0; selected by phage display from synthetic Fab library E against OATP1B3; light chain (LC) of Fab19 in PDB 8PG0; also called synthetic Fab fragment Fab19; source: E. coli C43 (Pro+), pRH2.2, purified (Protein L, Resource S)
B2: the binding result in assay [2] was “binds”.

These data come from paper PMC10507018, “Structure of human drug transporters OATP1B1 and OATP1B3” (Nature Communications, 2023).
